From the RNAGym collection of RNA variant scans (doi:10.7554/elife.80360) come the findings set out here.

B1: Hairpin Ribozyme (parent)
chain: GUCCUCUUUCACGUGCGCGUGAAAGAGAGAAGUGAACCAGAGAAACACACGUUGUGGUAUAUUACCUGGUA

The series covers variants of B1. The series is described as follows: self-cleavage, relative activity (ratio to wild type); higher = more cleavage; co-transcriptional.
With GUCCUCUUUCACGUGCGCGUGAAUGAGAGAAGUGAACCAGAGAAACACACGUUGUGGUAUAUUCCCUGGUA [A24U A64C], the self-cleavage was found to be 0.142.

As for GUCCUCUUUCACGUGCGCGUGAAAGAGAGAAGUGAACCAGAUAAACACACGUUGUGGUAUACUACCUGGUA [G42U U62C], the self-cleavage is 0.149.

Turning to GUCCUCUUUCACCUGCGCGUGUAAGAGAGAAGUGAACCAGAGAAACACACGUUGUGGUAUAUUACCUGGUA [G13C A22U], the self-cleavage came to 0.528.

Regarding GUCCUCUUUCACGUGCGCGUUAAAGAGAGAAGUGAACCAGAGAAAUACACGUUGUGGUAUAUUACCUGGUA [G21U C46U], the self-cleavage turned out to be 0.128.

In the case of GUCCUCUUUCACGUGCGCUUGAAAGAGAAAAGUGAACCAGAGAAACACACGUUGUGGUAUAUUACCUGGUA [G19U G29A], the self-cleavage is 0.111.

Turning to GUCCUCUUUCAAGUGCGCGUUAAAGAGAGAAGUGAACCAGAGAAACACACGUUGUGGUAUAUUACCUGGUA [C12A G21U], the self-cleavage was determined as 0.752.

For the variant GUCCUCUUUCACGUGCGCGUGAAAGAGAGAAGUGAACCAGAGAAACACACAUUGUGGUAUAAUACCUGGUA [G51A U62A], the self-cleavage is 0.137.

With GUCCUCUUUCACGUGCGCGUGAAAGAGAGAAGUGAACCAGAGGACCACACGUUGUGGUAUAUUACCUGGUA [A43G A45C], the self-cleavage came to 0.142.

Regarding GUCCUCUUGCACGUGCGCGUGAAAGAGAGACGUGAACCAGAGAAACACACGUUGUGGUAUAUUACCUGGUA [U9G A31C], the self-cleavage amounted to 0.0438.

As to GUCCUCUUUCACGUGCGCGUGAAAGAGAGAAGUGAACAAGAGAAACACACGUUGUGGUAUAUUACCUCGUA [C38A G68C], the self-cleavage was 0.137.

For the variant GCCCUCUUUCACGUGCGCGUGAAUGAGAGAAGUGAACCAGAGAAACACACGUUGUGGUAUAUUACCUGGUA [U2C A24U], the self-cleavage came to 0.107.

Take GUCCUCUUUCACGUGCGCGUGAAAGAGAGAAGUGAACCAGAGUAACACACGUUGUGGUAUAUUACCUGGUA [A43U]: the self-cleavage is 0.151.

GUCCUCUUUCACGUGCGCGUUAAAGAGAGAAGUGAACGAGAGAAACACACGUUGUGGUAUAUUACCUGGUA [G21U C38G]: the self-cleavage was found to be 0.167.

In the case of GUCCUCUUUCACGUGCGCGUGAAAGAGAGAAGUAAACCAGAGAAACACACGUUUUGGUAUAUUACCUGGUA [G34A G54U], the self-cleavage stood at 0.719.

With GUCCUCUUUCACGUGCGCGUGAAAGAAAGAAGUGAACCAGAGAAACACACGUUGUGGUAUGUUACCUGGUA [G27A A61G], the self-cleavage amounted to 0.114.

Regarding GUCCUCUUUCUCGUGCGCGUGAAAGAGAGAAGUGAACCAGAGAAACACACGUUGUGGUAUAUUACAUGGUA [A11U C66A], the self-cleavage came out at 0.139.

Take GUCCUCUUUCACGUGCGCGUGAAAGAGGGAAGUGAACCAGAGAAACACACGUUGUGGUAUAUUAUCUGGUA [A28G C65U]: the self-cleavage stood at 0.498.

GUCCUCUUUCACGUGCGCGUGAAAGAGAGAAGUGAACCAGAGAAACAAACGUUGUGGUAGAUUACCUGGUA [C48A U60G]: the self-cleavage came to 0.149.

In the case of GUCCUCUUUCACGUGCGCGUGAAAGUGAGAAGUGAACCAGAGAAAAACACGUUGUGGUAUAUUACCUGGUA [A26U C46A], the self-cleavage was 0.146.

In the case of GUCCUCUUUCACGUGCGCGUGAAAGAGAGAAUUGAACCAGAGAAACACACGUUGUAGUAUAUUACCUGGUA [G32U G56A], the self-cleavage was found to be 0.117.

In the case of GUCCUCUCUCACGUGCGCGUGAAAGAGAGUAGUGAACCAGAGAAACACACGUUGUGGUAUAUUACCUGGUA [U8C A30U], the self-cleavage was found to be 0.0797.

For the variant GUCCUCUUUCAGGUGCCCGUGAAAGAGAGAAGUGAACCAGAGAAACACACGUUGUGGUAUAUUACCUGGUA [C12G G17C], the self-cleavage turned out to be 0.842.

In the case of GUCCUCUUUCACGUGCGCAUGAAAGAGAGAAGUGAACCAGAGAAACACACGUAGUGGUAUAUUACCUGGUA [G19A U53A], the self-cleavage stood at 0.919.

As to GUCCUCUUUCACGUGCGCCUGAAAGAGAGAAGUGAACCAUAGAAACACACGUUGUGGUAUAUUACCUGGUA [G19C G40U], the self-cleavage is 0.091.

As to GUCCUCUUUCACGUGGGCGUGAAAGAGAGAAGUGAACCAGAGAAACACACGUUGUCGUAUAUUACCUGGUA [C16G G56C], the self-cleavage is 0.2.

Take GUCCUCUUUCGCGUGCGCGUGAAAGUGAGAAGUGAACCAGAGAAACACACGUUGUGGUAUAUUACCUGGUA [A11G A26U]: the self-cleavage came to 0.645.

Take GUCCUCUUUCACGUGCGCGUGAAAGAGAGAAGUGAACCAGAGAAACACAUGUUGUGGUAUAUGACCUGGUA [C50U U63G]: the self-cleavage turned out to be 0.198.

Consider GUCCUCUUUCACGUGCGCGUGAACGAGAGAAGUGAACCAGAGAAACACACGUUGCGGUAUAUUACCUGGUA [A24C U55C], for which the self-cleavage is 0.305.

Turning to GUCCUCUUUCACGUGCGCGUGAAAGAGAGAAGUGAACCAGAGAAAUACAAGUUGUGGUAUAUUACCUGGUA [C46U C50A], the self-cleavage worked out at 0.0957.

Regarding GUCCUCUUUCACGUGCACGUGAAAGAGAGAAGUGAACCAGAGAAACACACGUUGUGGUAUAUAACCUGGUA [G17A U63A], the self-cleavage was 0.19.

With GUCCUCUUUCACCUGCGCGUGAAAGAGAGAAGUGAACCAGAGAAACACACGUUGUGGUAUAUUACCUGCUA [G13C G69C], the self-cleavage was 0.199.

With GUCCUCUUUCACGUGCGCGUGAAAGAGAGAAGUGAACCAGAGAAACACACGUAGUGGAAUAUUACCUGGUA [U53A U58A], the self-cleavage was determined as 0.746.

With GUCCUCUUUAACGUGCGCGUGAAAGAGAGAAGUGAACCCGAGAAACACACGUUGUGGUAUAUUACCUGGUA [C10A A39C], the self-cleavage worked out at 0.463.

For GUCCUCUUUCACGUGCGCGUGAAAGGGAGAAGUGAACCAGAGAAACACACGUUGUGGUGUAUUACCUGGUA [A26G A59G], the self-cleavage came to 0.158.

As to GUCCUCUUUCACGCGCGCGUGAAAGAGAGAAGUAAACCAGAGAAACACACGUUGUGGUAUAUUACCUGGUA [U14C G34A], the self-cleavage worked out at 0.988.

Take GUGCUCUUUCACGUGCGCGUGAAAGAGAGAAGUGAACCUGAGAAACACACGUUGUGGUAUAUUACCUGGUA [C3G A39U]: the self-cleavage amounted to 0.114.

GUCCUCUUUCACGUGCGCGUGAAAGACAGAAGUGAACCAGAGAAACACUCGUUGUGGUAUAUUACCUGGUA [G27C A49U]: the self-cleavage worked out at 0.129.

Turning to GUCCUCUUUCACGUGCGCGUGAAAGAGAGAAGUGAACCACAGAAACACAAGUUGUGGUAUAUUACCUGGUA [G40C C50A], the self-cleavage amounted to 0.0683.
